Read-outs that look alike come from different tables or passages of the source. Numbered stars: 1 amine (or outer) side, 2 acyl side, 3 side chain; on linkers, the order of the positions; unused ones are H or OH. Square brackets hold non-standard residues; d marks the D form. Peptide text beside a SMILES is read from it. * marks the point of attachment. DOTA(Lu)NH(CH2)6NHCOCH2 = O=C(CN1CCN2CCN3CCN(CC1)CC(=O)[O][Lu]([O]C(=O)C2)[O]C(=O)C3)NCCCCCCNC(=O)C*; DOTA(Lu) = O=C1CN2CCN3CCN(CC(=O)*)CCN(CC2)CC(=O)[O][Lu]([O]1)[O]C(=O)C3; Ala(piperidin-4-yl) = O=C([C@H](CC1CCN([*:3])CC1)N[*:1])[*:2]; dTrp(βS-Me) = C[C@@H](c1c[nH]c2ccccc12)[C@@H](N)C(=O)O; Ala(piperazin-1-yl) = N[C@@H](CN1CCNCC1)C(=O)O; X2 = O=C([C@H](CCC1CNC1)N[*:1])[*:2]; Lys(Me2) = CN(C)CCCC[C@H](N)C(=O)O; Lys(Me) = CNCCCC[C@H](N)C(=O)O; NMehCys = CN[C@@H](CCS)C(=O)O; NMeK = CN[C@@H](CCCCN)C(=O)O; X1 = C1NCC1*
Columns and labels:
SSTR2 = SSTR2 (Homo sapiens, UniProt P30874); test: SSTR binding affinity by radioligand binding competition assay ([125I]-Tyr11-Somatostatin, membrane extracts); details: radioligand competition, [125I]-Tyr11-Somatostatin 0.1 nM, membrane extracts, Ki from IC50 by Cheng Prusoff
[1] = Peptide conjugate biodistribution measured by tissue PK (ICP-MS, % ID/g in kidney tissue at 2 h); format: in vivo; details: 2 h time point, mouse
Description: Macrocyclic peptides and conjugates described herein were tested for tissue distribution by measuring concentrations in tissues by MS using in vivo animal models. Peptide metal chelates were dosed to animals and tissues were collected at specific time points based off the peptide PK profile. The samples were then analyzed by MS and the results reported as % ID/g (% injected dose/gram). Radiopharmaceutical conjugates of the present disclosure have improved tissue distribution for radiopharmaceutical therapeutics.
Peptide metal chelate doses were suspended in phosphate-buffered saline (PBS) containing 0.1% Tween 80. An injection volume of 100 μL per mouse was used, and blood and tissue samples were collected, weighed, and stored frozen at-80° C. until analysis. Tissue samples were digested with concentrated nitric acid in a microwave digestion apparatus. The sample digest was diluted with internal standard and analyzed using inductively coupled plasma mass spectrometry (ICP-MS). ICP-MS is an elemental analysis technique used to measure elements by using argon plasma to convert the sample into ions that are then measured using the mass spectrometer. Calibration standards were used for quantification of element(s) of interest by constructing a multipoint standard curve covering the range of analyte concentrations anticipated in the samples (typical range is 500 ppt to 0.1 ppt). A single quadrupole instrument (iCAP RQ, Thermo Fisher) ICP-MS was coupled with a Teledyne CETAC autosampler and used for the sample analysis.
The % ID/g of conjugate in kidney tissue at the 2-hour time point (2 h) was quantified for various conjugates, and the results are shown in Table 10. Lower kidney tissue % ID/g values indicate lower distribution to the kidney after administration of the conjugate.

[2] = target: T1, somatostatin receptor type 2 (SSTR2) (UniProt P30874 1-369, limits assumed); test: radioligand competition; Ki bin per legend
T1 construct: also called SSTR protein
T1 sequence (P30874 whole entry): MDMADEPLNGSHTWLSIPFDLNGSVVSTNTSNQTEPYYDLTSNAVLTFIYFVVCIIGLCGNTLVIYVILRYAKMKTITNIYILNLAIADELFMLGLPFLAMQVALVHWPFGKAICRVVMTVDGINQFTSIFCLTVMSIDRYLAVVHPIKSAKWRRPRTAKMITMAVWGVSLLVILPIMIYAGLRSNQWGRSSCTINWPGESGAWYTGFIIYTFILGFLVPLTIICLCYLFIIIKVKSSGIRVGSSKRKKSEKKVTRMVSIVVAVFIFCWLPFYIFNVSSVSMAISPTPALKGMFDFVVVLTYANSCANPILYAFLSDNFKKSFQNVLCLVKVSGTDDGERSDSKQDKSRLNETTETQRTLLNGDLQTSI

SSTR2, sequence (P30874 whole entry): as above

With `C[C@@H](O)[C@@H]1NC(=O)[C@H](CCCCN)NC(=O)[C@@H](Cc2c[nH]c3ccccc23)NC(=O)[C@H](Cc2ccc(O)cc2)NC(=O)[C@H](CCSCC(=O)NCCCCCCNC(=O)CN2CCN3CCN4CCN(CC2)CC(=O)[O][Lu]([O]C(=O)C3)[O]C(=O)C4)N(C)C(=O)[C@H](Cc2ccccc2)NC1=O` [RB-0003149] the Ki (SSTR2; SSTR2 Ki) was under 1 nM and the tissue uptake at 2 h [1] was 8.4 %ID/g.

In the case of `C[C@@H](O)[C@@H]1NC(=O)[C@H](CCCCN)NC(=O)[C@H](Cc2c[nH]c3ccccc23)NC(=O)[C@H](Cc2ccc(O)cc2)NC(=O)[C@H](CCSCC(=O)NCCOCCOCCOCCNC(=O)CN2CCN3CCN4CCN(CC2)CC(=O)[O][Lu]([O]C(=O)C3)[O]C(=O)C4)N(C)C(=O)[C@H](Cc2ccccc2)NC1=O` [RB-0005502], the Ki (SSTR2; read-out: SSTR2 Ki) is reported as under 1 nM and the tissue uptake at 2 h [1] is reported as 9.4 %ID/g.

In the case of `C[C@@H](O)[C@@H]1NC(=O)[C@H](CC2CCNCC2)NC(=O)[C@@H]([C@@H](C)c2c[nH]c3ccccc23)NC(=O)[C@H](Cc2ccc(O)cc2)NC(=O)[C@H](CCSCC(=O)NCCCCCCNC(=O)CN2CCN3CCN4CCN(CC2)CC(=O)[O][Lu]([O]C(=O)C3)[O]C(=O)C4)N(C)C(=O)[C@H](Cc2ccccc2)NC1=O` [RB-0005760] (cyclo(F[NMehCys](DOTA(Lu)NH(CH2)6NHCOCH2)Y[dTrp(βS-Me)][Ala(piperidin-4-yl)]T)), the Ki (SSTR2; read-out: SSTR2 Ki) is reported as under 1 nM and the tissue uptake at 2 h [1] is reported as 2.7 %ID/g.

Molecule `CNCCCC[C@@H]1NC(=O)[C@@H](Cc2c[nH]c3ccccc23)NC(=O)[C@H](Cc2ccc(O)cc2)NC(=O)[C@H](CCSCC(=O)NCCCCCCNC(=O)CN2CCN3CCN4CCN(CC2)CC(=O)[O][Lu]([O]C(=O)C3)[O]C(=O)C4)N(C)C(=O)[C@H](Cc2ccccc2)NC(=O)[C@H]([C@@H](C)O)NC1=O` [RB-0005799] (cyclo(F[NMehCys](DOTA(Lu)NH(CH2)6NHCOCH2)Y[dW][Lys(Me)]T)) has a Ki (SSTR2; read-out: SSTR2 Ki) of under 1 nM and a tissue uptake at 2 h [1] of 2.3 %ID/g.

`C[C@@H](O)[C@@H]1NC(=O)[C@H](CCCCN(C)C)NC(=O)[C@@H](Cc2c[nH]c3ccccc23)NC(=O)[C@H](Cc2ccc(O)cc2)NC(=O)[C@H](CCSCC(=O)NCCCCCCNC(=O)CN2CCN3CCN4CCN(CC2)CC(=O)[O][Lu]([O]C(=O)C3)[O]C(=O)C4)N(C)C(=O)[C@H](Cc2ccccc2)NC1=O` [RB-0005801] (cyclo(F[NMehCys](DOTA(Lu)NH(CH2)6NHCOCH2)Y[dW][Lys(Me2)]T)) gave a Ki (SSTR2; read-out: SSTR2 Ki) of 1 to 3.33 nM and a tissue uptake at 2 h [1] of 2 %ID/g.

For `C[C@@H](O)[C@@H]1NC(=O)[C@H](CN2CCNCC2)NC(=O)[C@@H](Cc2c[nH]c3ccccc23)NC(=O)[C@H](Cc2ccc(O)cc2)NC(=O)[C@H](CCSCC(=O)NCCCCCCNC(=O)CN2CCN3CCN4CCN(CC2)CC(=O)[O][Lu]([O]C(=O)C3)[O]C(=O)C4)N(C)C(=O)[C@H](Cc2ccccc2)NC1=O` [RB-0005805] (cyclo(F[NMehCys](DOTA(Lu)NH(CH2)6NHCOCH2)Y[dW][Ala(piperazin-1-yl)]T)), the Ki (SSTR2; SSTR2 Ki) was under 1 nM and the tissue uptake at 2 h [1] was 2.5 %ID/g.

In the case of `C[C@@H](O)[C@@H]1NC(=O)[C@H](CCC2CNC2)NC(=O)[C@@H](Cc2c[nH]c3ccccc23)NC(=O)[C@H](Cc2ccc(O)cc2)NC(=O)[C@H](CCSCC(=O)NCCCCCCNC(=O)CN2CCN3CCN4CCN(CC2)CC(=O)[O][Lu]([O]C(=O)C3)[O]C(=O)C4)N(C)C(=O)[C@H](Cc2ccccc2)NC1=O` [RB-0005897] (cyclo(F[NMehCys](DOTA(Lu)NH(CH2)6NHCOCH2)Y[dW][X2]T)), the Ki (SSTR2; read-out: SSTR2 Ki) is reported as under 1 nM and the tissue uptake at 2 h [1] is reported as 2.5 %ID/g.

For `C[C@@H](O)[C@@H]1NC(=O)[C@H](COC2CNC2)NC(=O)[C@@H](Cc2c[nH]c3ccccc23)NC(=O)[C@H](Cc2ccc(O)cc2)NC(=O)[C@H](CCSCC(=O)NCCCCCCNC(=O)CN2CCN3CCN4CCN(CC2)CC(=O)[O][Lu]([O]C(=O)C3)[O]C(=O)C4)N(C)C(=O)[C@H](Cc2ccccc2)NC1=O` [RB-0006013] (cyclo(F[NMehCys](DOTA(Lu)NH(CH2)6NHCOCH2)Y[dW]S(X1)T)), the Ki (SSTR2; read-out: SSTR2 Ki) was 1 to 3.33 nM and the tissue uptake at 2 h [1] was 3 %ID/g.

`C[C@@H](O)[C@@H]1NC(=O)[C@H](CN2CCNCC2)NC(=O)[C@@H]([C@@H](C)c2c[nH]c3ccccc23)NC(=O)[C@H](Cc2ccc(O)cc2)NC(=O)[C@H](CCSCC(=O)NCCCCCCNC(=O)CN2CCN3CCN4CCN(CC2)CC(=O)[O][Lu]([O]C(=O)C3)[O]C(=O)C4)N(C)C(=O)[C@H](Cc2ccccc2)NC1=O` [RB-0006072] (cyclo(F[NMehCys](DOTA(Lu)NH(CH2)6NHCOCH2)Y[dTrp(βS-Me)][Ala(piperazin-1-yl)]T)) gave a Ki (SSTR2; read-out: SSTR2 Ki) of under 1 nM and a tissue uptake at 2 h [1] of 2.7 %ID/g.

For `C[C@@H](O)[C@@H]1NC(=O)[C@H](CC2CCNCC2)NC(=O)[C@@H]([C@@H](C)c2c[nH]c3ccccc23)NC(=O)[C@H](Cc2ccc(O)cc2)NC(=O)[C@H](CCCCNC(=O)CN2CCN3CCN4CCN(CC2)CC(=O)[O][Lu]([O]C(=O)C3)[O]C(=O)C4)N(C)C(=O)[C@H](Cc2ccccc2)NC1=O` [RB-0006176] (cyclo(F[NMeK](DOTA(Lu))Y[dTrp(βS-Me)][Ala(piperidin-4-yl)]T)), the tissue uptake at 2 h [1] was 1.6 %ID/g.

B1: RB-0002676 (peptide)
peptide: XYWKVF
modifications: cyclo[NMe-Hcy(COCH2-Dah-DOTA-Lu);Tyr;D-Trp;Lys;Val;Phe]
B1 showed a Ki [2] of under 1 nM.

B2: RB-0006176 (peptide)
peptide: cyclo([NMeK]Y[dTrp(βS-Me)][Ala(piperazin-1-yl)]TF)
modifications: not fully specified (residue 1); printed as cyclo[NMe-Lys(DOTA-Lu),Tyr,(S-βMe)D-Trp,PipzaA,Thr,Phe]; also: Lu chelated in DOTA
With B2 the Ki [2] was under 1 nM.

B3: RB-0003453 (peptide)
peptide: XYWKTF
modifications: cyclo[NMe-Hcy(COCH2-Dah-DOTA-Lu);Tyr;D-Trp;NMe-Lys;Thr;Phe]
For B3, the Ki [2] was under 1 nM.
